The target in assay [1] is T1, GID4^Δ1–115 (human, UniProt Q8IVV7 116-300).
T1 construct: also called recombinant GID4 lacking its N-terminal domain; source: E. coli Rosetta 2(DE3)pLysS, purified (Strep-Tactin, Ulp1 cleavage, size-exclusion chromatography); not shown: 2xStrepII, N-terminal, cleaved; Smt3, N-terminal, cleaved
T1 sequence (looked up): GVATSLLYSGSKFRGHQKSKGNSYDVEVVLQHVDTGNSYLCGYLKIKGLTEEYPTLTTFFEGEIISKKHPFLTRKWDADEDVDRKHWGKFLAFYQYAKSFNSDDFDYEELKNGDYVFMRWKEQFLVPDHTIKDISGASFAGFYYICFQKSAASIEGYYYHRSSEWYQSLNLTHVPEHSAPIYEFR
Nature of the assay: fluorescence polarisation; competition: 20 μM GID4^Δ1–115 and 20 nM PGLWKS-TAMRA, 10 min with twofold dilutions of unlabeled peptides in FP buffer; log(inhibitor) versus response, variable slope. The conditions noted are these: both partners purified.

The target in assay [2] is T1, GID4^Δ1–115. The experiment in a line: fluorescence polarisation; saturation binding: 20 nM TAMRA-labeled peptide with indicated GID4^Δ1–115 concentrations, 10 min, FP buffer (20 mM MOPS pH 7.6, 100 mM NaCl, 25 mM D-trehalose, 1% glycerol, 0.01% Triton X-100, 0.1 g/l BSA); one site-specific binding model. Conditions: both partners purified.

Where no end group is shown, it is not given here.

Here are results for 3 molecules from publication PMC11467045, “The hGID^GID4 E3 ubiquitin ligase complex targets ARHGAP11A to regulate cell migration” (Life Science Alliance, 2024).

As a reminder, the IC50 is the concentration that gives 50% inhibition. Lower therefore signals inhibition by little substance. One may read the Kd as the concentration at which binding is half-saturated. Higher therefore signals weaker binding.

B1: PGKLRSDAG (peptide)
peptide: PGKLRSDAG
notes: amino terminus of DDX21 (Owens et al, 2024), without the initiator methionine; also called N-terminal peptide of DDX21
Consider B1, for which the half-maximal inhibitory concentration (IC50) with GID4^Δ1–115 [1] amounted to 83.4 µM.

B2: PGLWKS-TAMRA (peptide)
peptide: PGLWKS-{TAMRA}
notes: control degron peptide (Dong et al, 2018); also called TAMRA-labeled control peptide PGLWKS
On to B2, for which binding with GID4^Δ1–115 [2] was put at a Kd of 2.4 µM. Molecule PGLWKS (control degron peptide, unlabeled) [unlabeled PGLWKS] came in with an IC50 in the assay with GID4^Δ1–115 [1] of 30.3 µM.
